Results on one molecule are retold here after publication PMC3716694, “Crystal structure of signal regulatory protein gamma (SIRPγ) in complex with an antibody Fab fragment” (BMC Structural Biology, 2013).

For experiment [1], the target named is T1, extracellular region of human signal regulatory protein gamma (SIRPγ) (human, UniProt Q9P1W8-1, high-mannose N-glycans (CHO Lec3.2.8.1); in the crystal de-glycosylated with endoglycosidase F1, N-acetylglucosamine modelled at residue 240).
T1 construct: SIRPγ, human, residues 29-347 of NP_061026, three Ig-like domains d1-d3; Glycosylated in the AUC experiments, Endo F1-treated in the crystal; also called SIRPβ2
Kind of experiment: AUC; sedimentation equilibrium of SIRPγ: FabOX117 mixtures at 2:1, 1:1 and 1:2, total 1 mg/ml, 15 000, 20 000, 28 000 and 36 000 rpm, fitted to A + B ↔ AB (SEDPHAT), 20 mM Tris-HCl pH 7.5, 200 mM NaCl, 20°C. Conditions: both partners purified.

For experiment [2], the target named is T1, extracellular region of human signal …. Kind of experiment: AUC; sedimentation velocity of SIRPγ: FabOX117 mixtures (2:1 and 1:2), total 1 mg/ml (13.7/6.3 μM), 40 000 rpm, 20 mM Tris-HCl pH 7.5, 200 mM NaCl, 20°C. As to conditions: both partners purified.

T1 sequence (Q9P1W8 29-347): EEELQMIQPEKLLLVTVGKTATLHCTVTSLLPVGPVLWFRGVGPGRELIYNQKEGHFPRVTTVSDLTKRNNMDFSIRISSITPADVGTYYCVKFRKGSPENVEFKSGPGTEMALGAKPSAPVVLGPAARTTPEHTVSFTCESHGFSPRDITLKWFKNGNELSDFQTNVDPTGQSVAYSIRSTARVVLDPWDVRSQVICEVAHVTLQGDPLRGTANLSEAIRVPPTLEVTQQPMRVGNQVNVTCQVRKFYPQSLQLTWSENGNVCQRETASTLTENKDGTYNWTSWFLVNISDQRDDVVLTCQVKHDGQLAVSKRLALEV

B1: Fab fragment of the anti-SIRP monoclonal antibody OX117 (Fab, V domains shown)
VH: EVKLQQSGPELVKPGASVKISCKASGYSFTSYYIHWVKQRPGQGLEWIGWVFPGSGNTKYNEKFKGKATLTADTSSSTAYMQLSSLTSEDSAVYFCARGNYDRAWFAYWGQGTLVTVSA
VL: DIVITQSPKFMSTSVGDRVSITCKASQDVSTAVAWFQQKPGQSPKLLIYSASYRYTGVPDRFTGSGSGTDFTFTISSVQAEDLAVYYCQQHYSTPWTFGGGTKLEIK
notes: Fd region (Vh and CH1 domains) of OX117, 220 residues; light chain of OX117, 214 residues; Recombinant Fab; also called FabOX117; not shown: His6, C-terminal, kept
The Kd is the concentration at which binding is half-saturated. For orientation: stoichiometry N means the number of molecules, sites or subunits per partner or assembly. As to B1, the Kd in experiment [1] amounted to 1200 nM. For the same molecule, the “stoichiometry N” value in experiment [2] was found to be 1.
